Measured values taken from the supplement of paper PMC10065799, “High-throughput profiling of sequence recognition by tyrosine kinases and SH2 domains using bacterial peptide display” (eLife, 2023).

What was measured:
c-Src SH2 = experiment: SH2 binding enrichment of the phosphorylated peptide, bacterial display (enrichment ratio); higher = better substrate or ligand; peptides without Tyr show the background
SHP2-C SH2 = experiment: as above
Grb2 SH2 = Grb2 SH2 (UniProt P62993); experiment: as above
Grb2 SH2, sequence (P62993 whole entry, looked up): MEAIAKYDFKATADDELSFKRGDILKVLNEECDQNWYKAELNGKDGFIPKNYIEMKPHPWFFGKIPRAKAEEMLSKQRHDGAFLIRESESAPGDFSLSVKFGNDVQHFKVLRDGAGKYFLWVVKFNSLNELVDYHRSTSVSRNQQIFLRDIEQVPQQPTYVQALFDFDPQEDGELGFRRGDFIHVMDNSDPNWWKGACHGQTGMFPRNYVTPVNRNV

FGFR3 = FGFR3 (UniProt P22607); experiment: phosphorylation enrichment, bacterial display (enrichment ratio); higher = better substrate or ligand; peptides without Tyr show the background
MERTK = MERTK (UniProt Q12866); experiment: as above
MERTK, sequence (Q12866 whole entry, looked up): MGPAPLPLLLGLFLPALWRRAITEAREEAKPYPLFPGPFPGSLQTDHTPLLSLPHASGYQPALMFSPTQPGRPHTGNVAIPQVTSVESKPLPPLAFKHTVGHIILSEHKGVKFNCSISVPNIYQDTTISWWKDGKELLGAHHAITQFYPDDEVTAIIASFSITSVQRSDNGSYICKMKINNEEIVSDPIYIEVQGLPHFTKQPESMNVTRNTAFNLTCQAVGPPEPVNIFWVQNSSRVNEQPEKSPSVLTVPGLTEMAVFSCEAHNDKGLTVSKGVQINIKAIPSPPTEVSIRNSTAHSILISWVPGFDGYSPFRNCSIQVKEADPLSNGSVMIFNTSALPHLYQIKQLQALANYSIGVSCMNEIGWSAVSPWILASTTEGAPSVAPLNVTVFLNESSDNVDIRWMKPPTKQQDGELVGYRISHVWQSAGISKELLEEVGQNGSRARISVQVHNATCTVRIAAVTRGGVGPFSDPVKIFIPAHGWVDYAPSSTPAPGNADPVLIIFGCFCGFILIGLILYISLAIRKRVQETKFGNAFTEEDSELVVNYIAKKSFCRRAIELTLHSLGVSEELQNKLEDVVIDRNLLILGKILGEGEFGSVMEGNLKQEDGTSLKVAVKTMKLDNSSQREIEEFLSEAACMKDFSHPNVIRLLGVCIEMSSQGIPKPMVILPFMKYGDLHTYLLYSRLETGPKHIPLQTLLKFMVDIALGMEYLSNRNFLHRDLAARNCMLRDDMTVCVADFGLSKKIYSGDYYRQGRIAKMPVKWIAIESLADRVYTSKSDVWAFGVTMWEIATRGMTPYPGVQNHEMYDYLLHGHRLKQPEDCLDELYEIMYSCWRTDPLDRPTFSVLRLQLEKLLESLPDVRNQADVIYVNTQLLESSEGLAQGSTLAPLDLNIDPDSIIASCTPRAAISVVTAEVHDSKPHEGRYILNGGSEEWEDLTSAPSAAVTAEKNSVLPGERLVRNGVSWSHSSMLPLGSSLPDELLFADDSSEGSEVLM

Hck = Hck (UniProt P08631); experiment: as above
Hck, sequence (P08631 whole entry, looked up): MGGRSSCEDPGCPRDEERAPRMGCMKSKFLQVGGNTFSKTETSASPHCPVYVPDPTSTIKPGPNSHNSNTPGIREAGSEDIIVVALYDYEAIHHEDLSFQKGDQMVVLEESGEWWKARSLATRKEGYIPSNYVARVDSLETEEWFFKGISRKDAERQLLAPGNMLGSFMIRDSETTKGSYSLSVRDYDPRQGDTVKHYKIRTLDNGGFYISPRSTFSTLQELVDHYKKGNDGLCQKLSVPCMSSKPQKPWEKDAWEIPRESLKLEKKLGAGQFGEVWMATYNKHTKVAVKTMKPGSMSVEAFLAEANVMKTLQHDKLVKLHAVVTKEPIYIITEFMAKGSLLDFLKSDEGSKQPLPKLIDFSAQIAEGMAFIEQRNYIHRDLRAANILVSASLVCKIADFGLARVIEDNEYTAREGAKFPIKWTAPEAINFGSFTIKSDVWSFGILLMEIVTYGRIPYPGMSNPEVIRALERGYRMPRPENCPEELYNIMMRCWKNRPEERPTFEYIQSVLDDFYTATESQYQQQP

EPHB1 = EPHB1 (UniProt P54762); experiment: as above
Fyn = Fyn (UniProt P06241); experiment: as above
Fyn, sequence (P06241 whole entry, looked up): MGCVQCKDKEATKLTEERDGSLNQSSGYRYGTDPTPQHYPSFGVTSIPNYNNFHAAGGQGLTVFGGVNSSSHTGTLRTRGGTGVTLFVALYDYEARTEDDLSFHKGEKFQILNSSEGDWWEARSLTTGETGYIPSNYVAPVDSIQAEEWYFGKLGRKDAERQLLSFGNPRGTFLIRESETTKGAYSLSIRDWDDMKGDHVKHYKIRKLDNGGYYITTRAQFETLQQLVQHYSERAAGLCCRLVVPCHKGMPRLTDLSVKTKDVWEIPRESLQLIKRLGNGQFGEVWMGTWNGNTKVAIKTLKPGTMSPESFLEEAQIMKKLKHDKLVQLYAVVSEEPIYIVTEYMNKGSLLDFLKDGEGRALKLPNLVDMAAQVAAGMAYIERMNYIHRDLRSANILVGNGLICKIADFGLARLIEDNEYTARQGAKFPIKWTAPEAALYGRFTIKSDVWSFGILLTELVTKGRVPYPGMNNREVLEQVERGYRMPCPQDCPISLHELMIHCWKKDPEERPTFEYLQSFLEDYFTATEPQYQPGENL

Jak2 = Jak2 (UniProt O60674); experiment: as above
Jak2, sequence (O60674 whole entry, looked up): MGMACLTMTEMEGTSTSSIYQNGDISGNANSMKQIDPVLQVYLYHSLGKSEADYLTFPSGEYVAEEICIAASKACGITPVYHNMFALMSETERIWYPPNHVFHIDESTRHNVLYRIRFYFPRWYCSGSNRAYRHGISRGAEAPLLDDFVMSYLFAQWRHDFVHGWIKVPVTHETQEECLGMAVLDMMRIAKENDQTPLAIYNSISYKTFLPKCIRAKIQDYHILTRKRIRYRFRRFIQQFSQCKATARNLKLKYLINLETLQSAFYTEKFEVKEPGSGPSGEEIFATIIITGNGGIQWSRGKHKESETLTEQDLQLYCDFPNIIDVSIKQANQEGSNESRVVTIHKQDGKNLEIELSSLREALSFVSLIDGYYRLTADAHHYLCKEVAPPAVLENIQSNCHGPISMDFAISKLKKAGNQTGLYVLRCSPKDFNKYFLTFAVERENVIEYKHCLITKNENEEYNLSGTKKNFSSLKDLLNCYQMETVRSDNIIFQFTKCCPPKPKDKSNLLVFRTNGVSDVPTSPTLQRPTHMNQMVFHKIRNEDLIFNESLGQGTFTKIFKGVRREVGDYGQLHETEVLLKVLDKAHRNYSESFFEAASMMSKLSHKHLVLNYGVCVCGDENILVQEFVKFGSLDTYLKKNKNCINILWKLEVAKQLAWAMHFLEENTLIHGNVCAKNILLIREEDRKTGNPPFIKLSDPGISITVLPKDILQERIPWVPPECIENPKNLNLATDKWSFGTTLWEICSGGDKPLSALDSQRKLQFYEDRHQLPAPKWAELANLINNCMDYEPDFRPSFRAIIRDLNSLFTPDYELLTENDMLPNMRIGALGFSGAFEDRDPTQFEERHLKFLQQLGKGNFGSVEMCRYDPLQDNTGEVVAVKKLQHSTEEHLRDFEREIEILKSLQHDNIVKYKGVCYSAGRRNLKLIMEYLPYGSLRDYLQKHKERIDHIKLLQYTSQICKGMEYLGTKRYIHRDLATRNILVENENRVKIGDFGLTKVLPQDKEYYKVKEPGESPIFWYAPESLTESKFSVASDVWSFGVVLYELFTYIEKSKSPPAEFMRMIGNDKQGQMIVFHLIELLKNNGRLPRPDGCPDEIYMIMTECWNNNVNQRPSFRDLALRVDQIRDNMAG

c-Src = experiment: as above
EPHB2 = EPHB2 (UniProt P29323); experiment: as above
Fes = Fes (UniProt P07332); experiment: as above
Fes, sequence (P07332 whole entry, looked up): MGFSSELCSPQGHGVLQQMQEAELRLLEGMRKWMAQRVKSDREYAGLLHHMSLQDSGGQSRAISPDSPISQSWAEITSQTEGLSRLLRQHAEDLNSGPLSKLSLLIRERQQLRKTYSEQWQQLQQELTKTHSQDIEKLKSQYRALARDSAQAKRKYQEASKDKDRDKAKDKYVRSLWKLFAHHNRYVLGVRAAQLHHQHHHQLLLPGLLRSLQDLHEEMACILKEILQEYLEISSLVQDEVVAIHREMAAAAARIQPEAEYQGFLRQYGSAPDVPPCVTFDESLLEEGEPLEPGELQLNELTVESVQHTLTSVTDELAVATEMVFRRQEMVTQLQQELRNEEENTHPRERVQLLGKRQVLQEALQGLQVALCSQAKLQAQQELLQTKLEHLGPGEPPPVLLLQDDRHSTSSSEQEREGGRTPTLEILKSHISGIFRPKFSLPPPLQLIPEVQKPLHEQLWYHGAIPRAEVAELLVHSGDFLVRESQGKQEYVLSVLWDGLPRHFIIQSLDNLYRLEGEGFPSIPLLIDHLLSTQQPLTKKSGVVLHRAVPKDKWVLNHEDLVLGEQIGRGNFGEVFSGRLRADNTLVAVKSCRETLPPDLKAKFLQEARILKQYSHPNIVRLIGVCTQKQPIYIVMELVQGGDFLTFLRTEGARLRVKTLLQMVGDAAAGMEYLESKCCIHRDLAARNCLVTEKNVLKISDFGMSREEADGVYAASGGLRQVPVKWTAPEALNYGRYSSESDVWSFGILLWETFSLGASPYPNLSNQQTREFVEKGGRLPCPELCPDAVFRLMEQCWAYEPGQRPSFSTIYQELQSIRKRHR

AncSZ = experiment: as above
Fer (mouse) = experiment: as above
FGFR1 = FGFR1 (UniProt P11362); experiment: as above
FGFR1, sequence (P11362 whole entry, looked up): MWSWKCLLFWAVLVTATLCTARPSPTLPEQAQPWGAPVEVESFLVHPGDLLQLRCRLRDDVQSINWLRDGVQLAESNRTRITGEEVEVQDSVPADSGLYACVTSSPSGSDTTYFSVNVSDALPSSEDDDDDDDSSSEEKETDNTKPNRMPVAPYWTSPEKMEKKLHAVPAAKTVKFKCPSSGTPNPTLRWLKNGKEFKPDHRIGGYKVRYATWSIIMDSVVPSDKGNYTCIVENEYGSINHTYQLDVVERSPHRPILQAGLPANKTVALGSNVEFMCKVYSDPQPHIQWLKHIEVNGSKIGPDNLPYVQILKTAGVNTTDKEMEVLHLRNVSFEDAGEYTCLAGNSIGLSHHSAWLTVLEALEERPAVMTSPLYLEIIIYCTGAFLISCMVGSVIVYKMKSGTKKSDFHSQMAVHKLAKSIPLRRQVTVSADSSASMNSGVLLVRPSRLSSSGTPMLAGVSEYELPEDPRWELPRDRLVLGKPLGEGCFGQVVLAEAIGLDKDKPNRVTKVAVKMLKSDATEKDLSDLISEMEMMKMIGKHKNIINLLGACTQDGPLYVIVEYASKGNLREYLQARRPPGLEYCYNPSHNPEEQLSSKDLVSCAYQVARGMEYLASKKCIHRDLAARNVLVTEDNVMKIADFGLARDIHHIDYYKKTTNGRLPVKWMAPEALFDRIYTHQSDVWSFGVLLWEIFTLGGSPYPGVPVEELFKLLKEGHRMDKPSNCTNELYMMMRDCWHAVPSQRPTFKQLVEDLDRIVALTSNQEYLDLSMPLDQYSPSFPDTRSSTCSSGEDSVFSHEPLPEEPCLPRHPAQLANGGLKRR

c-Abl (mouse) = experiment: as above
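For SH2 binding enrichment of the phosphorylated peptide, bacterial display in this document: peptide library displayed on the E. coli surface as eCPX fusions, selected cells deep-sequenced, score is each peptide's frequency after selection divided by its frequency in the input.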
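For phosphorylation enrichment, bacterial display in this document: 11-residue human phosphosite peptides and single-mutation variants displayed on the E. coli surface, counted by deep sequencing, each peptide's frequency after selection divided by its frequency in the unselected input library; frequency after pTyr selection over input frequency; kinase dosed for 20-30% of maximal phosphorylation in three min.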

Row | Sequence | SH2 binding enrichment (c-Src SH2) | SH2 binding enrichment (SHP2-C SH2) | SH2 binding enrichment (Grb2 SH2) | phosphorylation enrichment (FGFR3) | phosphorylation enrichment (MERTK) | phosphorylation enrichment (Hck) | phosphorylation enrichment (EPHB1) | phosphorylation enrichment (Fyn) | phosphorylation enrichment (Jak2) | phosphorylation enrichment (c-Src) | phosphorylation enrichment (EPHB2) | phosphorylation enrichment (Fes) | phosphorylation enrichment (AncSZ) | phosphorylation enrichment (Fer (mouse)) | phosphorylation enrichment (FGFR1) | phosphorylation enrichment (c-Abl (mouse))
1 | KDLPNYNWNSF [KISS1_Y112] | 0.459 | 0.441 | 0.769 | 0.521 | 0.491 | 0.416 | 0.505 | 0.446 | 0.767 | 0.507 | 0.63 | 0.855 | 0.904 | 0.604 | 0.432 | 0.639
2 | LKFAIYFEARE [LAMA2_Y1258_YF] | 0.352 | 0.756 | 1.08 | 2.05 | 0.845 | 0.736 | 1.78 | 1.29 | 1.1 | 0.345 | 0.983 | 2.6 | 1.45 | 0.884 | 1.41 | 1.06
3 | LTEEKYELKEG [TREM1_Y29] | 0.494 | 0.639 | 1.14 | 0.979 | 0.705 | 0.782 | 0.977 | 0.698 | 1.65 | 0.52 | 0.875 | 1.41 | 2.36 | 0.593 | 0.711 | 0.785
4 | HLWRIYFDITD [MMP27_Y307_YF] | 0.491 | 0.695 | 0.877 | 1.19 | 0.366 | 0.739 | 1.15 | 0.532 | 1.52 | 0.462 | 0.771 | 1.81 | 1.39 | 0.531 | 0.973 | 1.27
5 | YGMSSYITRED [FNDC3B_Y180_T179S] | 0.472 | 0.669 | 0.764 | 0.696 | 0.544 | 0.431 | 0.545 | 0.423 | 0.697 | 0.51 | 0.452 | 0.844 | 0.819 | 0.524 | 0.529 | 0.645
6 | FLAVGYHKPYI [IDS_Y225_H229Y] | 1.51 | 1.14 | 0.98 | 0.512 | 0.441 | 0.399 | 0.591 | 0.46 | 1.02 | 0.348 | 0.441 | 1.16 | 0.654 | 0.554 | 0.446 | 1.16
7 | ELPQTYCVSGP [DYSF_Y1684_G1679E] | 0.47 | 0.881 | 0.838 | 0.594 | 0.447 | 0.435 | 0.533 | 0.469 | 0.826 | 0.641 | 0.532 | 0.816 | 0.791 | 0.515 | 0.417 | 0.633
8 | LNEAVYTKMMT [G6PD_Y401_P396L] | 1.61 | 0.414 | 0.659 | 1.29 | 3.19 | 6.11 | 1.76 | 5.35 | 1.15 | 5.76 | 1.8 | 2.05 | 1.9 | 16.1 | 1.38 | 0.881
9 | SRIWVYNHFRW [BRCA2_Y2621_YF] | 1.12 | 1.37 | 1.15 | 0.78 | 0.44 | 0.477 | 0.597 | 0.423 | 1.13 | 0.479 | 0.612 | 1.29 | 1.15 | 0.413 | 0.435 | 0.853
10 | VECQVYAEDPF [PCCA_Y401_R399Q_YF] | 0.498 | 0.501 | 0.764 | 1.16 | 0.408 | 0.587 | 0.6 | 0.52 | 0.99 | 0.602 | 0.548 | 1.24 | 1.22 | 0.663 | 0.446 | 0.748
11 | RMSQRYGDVLQ [CYP1A2_Y72] | 0.294 | 0.518 | 0.788 | 0.769 | 0.481 | 0.336 | 0.399 | 0.431 | 0.744 | 0.595 | 0.41 | 0.967 | 1.03 | 0.644 | 0.89 | 0.747
12 | KKGIVYVFNGR [ITGAV_Y404_I405V] | 1.32 | 1.91 | 2.05 | 0.538 | 0.48 | 0.486 | 0.458 | 0.477 | 0.73 | 0.395 | 0.449 | 0.677 | 0.756 | 0.441 | 0.527 | 0.443
13 | VGGRIYTDDGL [PKLR_Y218_I219T] | 0.453 | 0.887 | 0.653 | 0.612 | 0.37 | 0.426 | 0.412 | 0.427 | 0.595 | 0.306 | 0.592 | 0.921 | 0.768 | 0.463 | 0.427 | 0.629
14 | LLKNMYLMLDN [STAT1_Y203_K201N] | 0.945 | 3.55 | 0.975 | 1.65 | 0.745 | 0.921 | 1.34 | 0.593 | 2.77 | 0.933 | 1.02 | 2.63 | 2.85 | 1.02 | 0.868 | 1.7
15 | RLKAKYAAATG [GLI3_Y933] | 0.511 | 0.698 | 0.811 | 0.395 | 0.414 | 0.464 | 0.421 | 0.379 | 0.692 | 0.529 | 0.526 | 0.611 | 0.64 | 0.486 | 0.36 | 0.601
16 | TFGNLYGSRKQ [YIPF7_Y59_A54T_YF] | 0.348 | 0.512 | 0.851 | 0.421 | 0.641 | 3.44 | 0.366 | 0.911 | 0.507 | 1.81 | 0.398 | 0.788 | 0.629 | 0.457 | 0.514 | 0.585
17 | RIRRRYCQVLN [IQCF1_Y144] | 0.482 | 0.438 | 0.666 | 0.703 | 0.609 | 0.826 | 0.784 | 0.583 | 0.614 | 0.575 | 0.592 | 1.11 | 0.673 | 0.835 | 0.708 | 0.455

Row | Sequence | SH2 binding enrichment (c-Src SH2) | SH2 binding enrichment (SHP2-C SH2) | SH2 binding enrichment (Grb2 SH2) | phosphorylation enrichment (FGFR3) | phosphorylation enrichment (MERTK) | phosphorylation enrichment (Hck) | phosphorylation enrichment (EPHB1) | phosphorylation enrichment (Fyn) | phosphorylation enrichment (Jak2) | phosphorylation enrichment (c-Src) | phosphorylation enrichment (EPHB2) | phosphorylation enrichment (Fes) | phosphorylation enrichment (AncSZ) | phosphorylation enrichment (Fer (mouse)) | phosphorylation enrichment (FGFR1) | phosphorylation enrichment (c-Abl (mouse))
18 | HEKKAYSFCGT [RPS6KA3_Y226] | 0.808 | 0.729 | 0.999 | 1.68 | 0.725 | 1.49 | 0.703 | 1.09 | 0.695 | 0.65 | 1.18 | 1.8 | 1.73 | 0.989 | 1.51 | 0.725
19 | EVTLTYATGIK [NFKB1_Y485_T489I] | 0.413 | 0.646 | 0.916 | 0.634 | 0.404 | 0.555 | 0.475 | 0.477 | 1.06 | 0.508 | 0.424 | 1.15 | 0.896 | 0.473 | 0.421 | 0.66
20 | TVNIRYLLFPS [SERAC1_Y548_S543T] | 1.26 | 1.46 | 1.9 | 0.829 | 0.606 | 0.574 | 0.728 | 0.577 | 1.11 | 0.434 | 0.725 | 1.21 | 1.21 | 0.564 | 0.578 | 0.716
21 | GHLFAYNWISI [BEST1_Y227_D228N_YF] | 0.916 | 1.13 | 0.993 | 1.21 | 0.548 | 0.444 | 0.51 | 0.488 | 0.978 | 0.392 | 0.469 | 1.06 | 0.962 | 4.77 | 1.34 | 0.58
22 | KAIMTYVSSFY [ACTN4_Y260] | 0.564 | 0.987 | 0.86 | 0.719 | 0.424 | 0.554 | 0.644 | 0.536 | 1.04 | 0.612 | 0.666 | 1.05 | 0.976 | 0.505 | 0.489 | 0.755
23 | HEPKGYNANFC [TGFB2_Y341] | 0.664 | 0.693 | 1.07 | 0.596 | 0.559 | 0.553 | 0.656 | 0.558 | 0.737 | 0.595 | 0.719 | 0.92 | 0.808 | 0.581 | 0.647 | 0.847
24 | CQAHGYFCQPI [STK11_Y156_L160P] | 0.907 | 0.812 | 1.15 | 0.538 | 0.407 | 0.357 | 0.35 | 0.329 | 0.615 | 0.404 | 0.436 | 0.678 | 0.867 | 0.362 | 0.646 | 0.783
25 | LNPLIYTLKNA [OR4C46_Y285] | 0.42 | 0.891 | 0.642 | 0.886 | 0.463 | 2.31 | 0.762 | 2.17 | 0.343 | 3.03 | 0.603 | 1.08 | 0.602 | 0.545 | 0.73 | 0.474
26 | GINDDYGQLKN [NBN_Y679] | 0.494 | 1.42 | 0.92 | 0.61 | 0.296 | 0.874 | 0.364 | 0.528 | 0.829 | 0.613 | 0.514 | 1.1 | 0.841 | 0.474 | 0.499 | 0.499
27 | EFNINYNNELP [THG1L_Y228] | 0.55 | 0.839 | 0.774 | 0.568 | 0.341 | 0.429 | 0.383 | 0.468 | 1.07 | 0.354 | 0.516 | 0.829 | 0.734 | 0.38 | 0.488 | 0.444
28 | GRQGIYKENER [GPR143_Y231_T232K] | 0.443 | 0.427 | 0.735 | 0.428 | 0.738 | 0.484 | 0.322 | 0.371 | 0.515 | 0.436 | 0.375 | 0.722 | 0.627 | 0.407 | 0.441 | 0.555
29 | HPFHVYSQPGM [BAG3_Y114_P115S] | 18.1 | 0.806 | 1.39 | 0.908 | 0.804 | 1.74 | 0.649 | 1.24 | 0.984 | 0.937 | 0.945 | 1.39 | 1.78 | 0.719 | 0.753 | 0.847
30 | QMQLKYSQSDL [SMC1A_Y714_R711Q] | 0.283 | 0.534 | 0.529 | 0.735 | 0.69 | 0.655 | 0.68 | 0.654 | 0.569 | 0.457 | 0.494 | 1.32 | 0.973 | 0.621 | 0.829 | 0.885
31 | LTFHMYADPNF [SOS1_Y618_YF] | 6.02 | 0.816 | 0.854 | 1.1 | 0.843 | 0.711 | 1.67 | 0.577 | 1.61 | 0.755 | 1.45 | 1.97 | 1.81 | 0.901 | 0.715 | 1.99
32 | LIHLHYIRKDF [BBS4_Y43_YF] | 1.6 | 2.75 | 2.06 | 1.22 | 0.471 | 0.637 | 1.17 | 0.871 | 0.787 | 0.527 | 1.01 | 1.18 | 1.51 | 0.984 | 0.937 | 0.612
33 | EWQQTYTYDSG [JUP_Y20] | 1.01 | 0.775 | 0.813 | 0.99 | 0.817 | 0.783 | 0.554 | 1.28 | 0.898 | 3.88 | 0.585 | 1.02 | 1.12 | 0.513 | 1.17 | 0.657
